According to patent publication US20110104143A1 (UAB RESEARCH FOUNDATION, published 2011):
Values belong to the binder of their own block, whether it stands above or below them.

What was measured:
human DR5 (full-length) [1] = molecular target: T1, human DR5 (full-length) (human, UniProt O14763 56-440); assay: co-immunoprecipitation using TRA-8, transfected HEK293A cells
T1 construct: whole, on cells; Whole receptor on cells (flow cytometry) or in cell lysates (co-immunoprecipitation); also called TRAIL-R2; wild-type DR5
Experimental: (§1) After 24 hours following transfection, protein expression was determined by Western blot analysis using respective monoclonal antibody. For co-immunoprecipitation analysis, cells were lysed with immunoprecipitation-lysis buffer containing a protease inhibitor cocktail.
(§2) The composition of the DR5 DISC was determined as follows. […] The DR5 DISC was then precipitated overnight at 4° C. with 30 μl beads. After immunoprecipitation, the beads were washed four times with lysis buffer. The beads were then washed five times with 10 mM Tris buffer and resuspended in loading buffer for SDS-PAGE and immunoblotting analyses.

human DR5 (full-length) [2] = molecular target: T1, human DR5 (full-length); assay: cell-based or functional assay
human DR5 (full-length) [3] = molecular target: T1, human DR5 (full-length); assay: cell-based or functional assay; remark: listed apart in the source
human DR5 (full-length) [4] = molecular target: T1, human DR5 (full-length); assay: co-immunoprecipitation and Western blot with anti-6-His antibody, transfected MDA231 cells
Experimental: as §2

cIAP1 [5] = molecular target: T2, cIAP1 (human, UniProt Q13490 1-618, limits assumed); assay: co-immunoprecipitation, transfected HEK293A cells
T2 construct: also called DR5-associated cIAP1; purified cIAP1
Experimental: as §1

cIAP1 [6] = molecular target: T2, cIAP1; assay: DR5 co-IP and Western blot with anti-DDX3 and anti-cIAP1 antibody

T2 sequence (Q13490 whole entry): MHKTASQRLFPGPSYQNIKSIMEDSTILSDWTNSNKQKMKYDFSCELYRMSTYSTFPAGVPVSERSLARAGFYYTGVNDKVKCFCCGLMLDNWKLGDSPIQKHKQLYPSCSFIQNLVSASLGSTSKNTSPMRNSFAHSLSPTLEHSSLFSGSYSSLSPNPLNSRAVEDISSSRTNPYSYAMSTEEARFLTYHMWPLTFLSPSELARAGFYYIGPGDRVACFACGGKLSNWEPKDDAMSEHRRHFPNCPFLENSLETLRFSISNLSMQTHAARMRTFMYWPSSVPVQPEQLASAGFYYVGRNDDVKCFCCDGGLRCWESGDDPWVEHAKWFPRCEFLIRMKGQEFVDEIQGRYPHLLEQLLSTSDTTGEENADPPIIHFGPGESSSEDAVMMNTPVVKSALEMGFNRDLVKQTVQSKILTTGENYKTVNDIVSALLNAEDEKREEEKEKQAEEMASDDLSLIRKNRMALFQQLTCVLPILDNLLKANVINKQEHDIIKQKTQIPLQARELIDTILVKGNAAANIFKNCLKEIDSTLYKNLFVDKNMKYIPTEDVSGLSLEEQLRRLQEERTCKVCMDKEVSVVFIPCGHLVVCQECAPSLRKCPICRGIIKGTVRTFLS

binding result (human DR5 (full-length) [1]): no binding
B1: DDX3Δ1-350 (other, human, UniProt O00571 1-350, looked up, not shown: small tags and cut ends)
chain: MSHVAVENALGLDQQFAGLDLNSSDNQSGGSTASKGRYIPPHLRNREATKGFYDKDSSGWSSSKDKDAYSSFGSRSDSRGKSSFFSDRGSGSRGRFDDRGRSDYDGIGSRGDRSGFGKFERGGNSRWCDKSDEDDWSKPLPPSERLEQELFSGGNTGINFEKYDDIPVEATGNNCPPHIESFSDVEMGEIIMGNIELTRYTRPTPVQKHAIPIIKEKRDLMACAQTGSGKTAAFLLPILSQIYSDGPGEALRAMKENGRYGRRKQYPISLVLAPTRELAVQIYEEARKFSYRSRVRPCVVYGGADIGQQIRDLERGCHLLVATPGRLVDMMERGKIGLDFCKYLVLDEAD
notes: range 1-350; Name read as the residues kept; also called C-terminal deleted DDX3

B2: TRA-8 (anti-human DR5 monoclonal antibody) (antibody, V domains shown)
VH: EVMLVESGGGLVKPGGSLKLSCAASGFTFSSYVMSWVRQTPEKRLEWVATISSGGSYTYYPDSVKGRFTISRDNAKNTLYLQMSSLRSEDTAMYYCARRGDSMITTDYWGQGTTLTVSS
VL: DIVMTQSHKFMSTSVGDRVSITCKASQDVGTAVAWYQQKPGQSPKLLIYWASTRHTGVPDRFTGSGSGTDFTLTISNVQSEDLADYFCQQYSSYRTFGGGTKLEIKR
IC50 of TRA-8 cytotoxicity (ATP cell viability), 2LMP cells (human DR5 (full-length) [2]): 0.0011 µg/mL | IC50 of TRA-8 cytotoxicity (ATP cell viability), BT-20 cells (human DR5 (full-length) [2]): 0.048 µg/mL | IC50 of TRA-8 cytotoxicity (ATP cell viability), BT-549 cells (human DR5 (full-length) [2]): 0.018 µg/mL | IC50 of TRA-8 cytotoxicity (ATP cell viability), HCC38 cells (human DR5 (full-length) [2]): 0.0009 µg/mL | IC50 of TRA-8 cytotoxicity (ATP cell viability), HCC1143 cells (human DR5 (full-length) [2]): > 1 µg/mL | IC50 of TRA-8 cytotoxicity (ATP cell viability), HCC1187 cells (human DR5 (full-length) [2]): 0.024 µg/mL | IC50 of TRA-8 cytotoxicity (ATP cell viability), HCC1599 cells (human DR5 (full-length) [2]): > 1 µg/mL | IC50 of TRA-8 cytotoxicity (ATP cell viability), HCC1937 cells (human DR5 (full-length) [2]): > 1 µg/mL | IC50 of TRA-8 cytotoxicity (ATP cell viability), MDA-MB-152 cells (human DR5 (full-length) [2]): 0.012 µg/mL | IC50 of TRA-8 cytotoxicity (ATP cell viability), MDA-MB-231 cells (human DR5 (full-length) [2]): 0.018 µg/mL | IC50 of TRA-8 cytotoxicity (ATP cell viability), MDA-MB-436 cells (human DR5 (full-length) [2]): 0.0032 µg/mL | IC50 of TRA-8 cytotoxicity (ATP cell viability), MDA-MB-468 cells (human DR5 (full-length) [2]): 0.017 µg/mL | IC50 of TRA-8 cytotoxicity (ATP cell viability), SUM102 cells (human DR5 (full-length) [2]): 0.0045 µg/mL | IC50 of TRA-8 cytotoxicity (ATP cell viability), SUM149 cells (human DR5 (full-length) [2]): 0.0009 µg/mL | IC50 of TRA-8 cytotoxicity (ATP cell viability), SUM159 cells (human DR5 (full-length) [2]): 0.0019 µg/mL | IC50 of TRA-8 cytotoxicity (ATP cell viability), BT-474 cells (human DR5 (full-length) [3]): > 1 µg/mL | IC50 of TRA-8 cytotoxicity (ATP cell viability), DY36T2 (MDA-MB-361 subclone) cells (human DR5 (full-length) [3]): > 1 µg/mL | IC50 of TRA-8 cytotoxicity (ATP cell viability), MCF-7 cells (human DR5 (full-length) [3]): > 1 µg/mL | IC50 of TRA-8 cytotoxicity (ATP cell viability), MDA-MB-134 cells (human DR5 (full-length) [3]): > 1 µg/mL | IC50 of TRA-8 cytotoxicity (ATP cell viability), MDA-MB-453 cells (human DR5 (full-length) [3]): > 1 µg/mL | IC50 of TRA-8 cytotoxicity (ATP cell viability), SK-BR-3 cells (human DR5 (full-length) [3]): > 1 µg/mL | IC50 of TRA-8 cytotoxicity (ATP cell viability), T-47D cells (human DR5 (full-length) [3]): > 1 µg/mL | IC50 of TRA-8 cytotoxicity (ATP cell viability), ZR-75-1 cells (human DR5 (full-length) [3]): 0.683 µg/mL | IC50 of TRA-8 cytotoxicity (ATP cell viability), ZR-75-30 cells (human DR5 (full-length) [3]): > 1 µg/mL

binding result (human DR5 (full-length) [4]): no binding
B3: His-tagged DDX3 C-terminal fragment (amino acids 310-662) (other)
chain: HHHHHHIRDLERGCHLLVATPGRLVDMMERGKIGLDFCKYLVLDEADRMLDMGFEPQIRRIVEQDTMPPKGVRHTMMFSATFPKEIQMLARDFLDEYIFLAVGRVGSTSENITQKVVWVEESDKRSFLLDLLNATGKDSLTLVFVETKKGADSLEDFLYHEGYACTSIHGDRSQRDREEALHQFRSGKSPILVATAVAARGLDISNVKHVINFDLPSDIEEYVHRIGRTGRVGNLGLATSFFNERNINITKDLLDLLVEAKQEVPSWLENMAYEHHYKGSSRGRSKSSRFSGGFGARDYRQSSGASSSSFSSSRASSSRSGGGGHGSSRGFGGGGYGGFYNSDGYGGNYNSQGVDWWGN
notes: also called C-terminal deletion mutant

binding result (cIAP1 [5]): no binding
B4: DDX3Δ101-662 (other)
chain: HHHHHHRSDYDGIGSRGDRSGFGKFERGGNSRWCDKSDEDDWSKPLPPSERLEQELFSGGNTGINFEKYDDIPVEATGNNCPPHIESFSDVEMGEIIMGNIELTRYTRPTPVQKHAIPIIKEKRDLMACAQTGSGKTAAFLLPILSQIYSDGPGEALRAMKENGRYGRRKQYPISLVLAPTRELAVQIYEEARKFSYRSRVRPCVVYGGADIGQQIRDLERGCHLLVATPGRLVDMMERGKIGLDFCKYLVLDEADRMLDMGFEPQIRRIVEQDTMPPKGVRHTMMFSATFPKEIQMLARDFLDEYIFLAVGRVGSTSENITQKVVWVEESDKRSFLLDLLNATGKDSLTLVFVETKKGADSLEDFLYHEGYACTSIHGDRSQRDREEALHQFRSGKSPILVATAVAARGLDISNVKHVINFDLPSDIEEYVHRIGRTGRVGNLGLATSFFNERNINITKDLLDLLVEAKQEVPSWLENMAYEHHYKGSSRGRSKSSRFSGGFGARDYRQSSGASSSSFSSSRASSSRSGGGGHGSSRGFGGGGYGGFYNSDGYGGNYNSQGVDWWGN
notes: also called DDX3 with the first 100 amino acids deleted; DN

binding result (cIAP1 [6]): no binding
B5: DDX3ΔCARD (DDX3Δ151-662) (other, human, UniProt O00571 151-662, looked up, not shown: small tags and cut ends)
chain: FSGGNTGINFEKYDDIPVEATGNNCPPHIESFSDVEMGEIIMGNIELTRYTRPTPVQKHAIPIIKEKRDLMACAQTGSGKTAAFLLPILSQIYSDGPGEALRAMKENGRYGRRKQYPISLVLAPTRELAVQIYEEARKFSYRSRVRPCVVYGGADIGQQIRDLERGCHLLVATPGRLVDMMERGKIGLDFCKYLVLDEADRMLDMGFEPQIRRIVEQDTMPPKGVRHTMMFSATFPKEIQMLARDFLDEYIFLAVGRVGSTSENITQKVVWVEESDKRSFLLDLLNATGKDSLTLVFVETKKGADSLEDFLYHEGYACTSIHGDRSQRDREEALHQFRSGKSPILVATAVAARGLDISNVKHVINFDLPSDIEEYVHRIGRTGRVGNLGLATSFFNERNINITKDLLDLLVEAKQEVPSWLENMAYEHHYKGSSRGRSKSSRFSGGFGARDYRQSSGASSSSFSSSRASSSRSGGGGHGSSRGFGGGGYGGFYNSDGYGGNYNSQGVDWWGN
notes: also called dominant negative mutant DDX3 lacking amino acids 1-150; truncated DDX3
